The target in experiment [1] is T1, CD47 expressed on human red blood cells (human, UniProt Q08722 19-323).
T1 construct: whole, on cells; also called RBCs; RBC
Put plainly: flow cytometry on human red blood cells. In general terms: In flow cytometry, cells or beads pass a laser one at a time.

Experiment [2] addresses T2, human CD47 extracellular domain with C-terminal 6×His tag (human, UniProt Q08722 19-139, limits assumed).
T2 construct: extracellular domain; Made in Expi293F cells (section 5.4.1); also called recombinant CD47; huCD47
Put plainly: ELISA on human CD47; EC50 given as a bin, limits from the table's legend; lower limit of bin B. In general terms: An ELISA detects its analyte on a solid surface through an enzyme-linked reagent.

For experiment [3], the target named is T2, human CD47 extracellular domain with …. The experiment can be described thus: ELISA on human CD47; EC50 given as a bin, limits from the table's legend; upper limit of bin B.
In experiment [4] the target is T3, human EpCAM extracellular domain with C-terminal His tag (Novoprotein #C339) (human, UniProt P16422 24-265).
T3 construct: extracellular domain; Bought protein
T3 sequence (looked up): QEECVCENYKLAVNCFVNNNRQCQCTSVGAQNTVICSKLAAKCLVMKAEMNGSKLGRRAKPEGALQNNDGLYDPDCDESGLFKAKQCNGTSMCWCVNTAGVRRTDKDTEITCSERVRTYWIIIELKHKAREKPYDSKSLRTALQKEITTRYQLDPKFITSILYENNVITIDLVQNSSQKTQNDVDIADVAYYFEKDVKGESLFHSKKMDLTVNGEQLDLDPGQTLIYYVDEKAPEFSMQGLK
Put plainly: ELISA on human EpCAM.

Experiment [5] concerns the target T4, human EpCAM on cells (CHO-K1 cells transfected with human EpCAM; EpCAM+ tumour cell lines) (human, UniProt P16422 24-314).
T4 construct: whole, on cells; also called CHO-K1-huEpCAM cells; cell-surface EpCAM
T4 sequence (looked up): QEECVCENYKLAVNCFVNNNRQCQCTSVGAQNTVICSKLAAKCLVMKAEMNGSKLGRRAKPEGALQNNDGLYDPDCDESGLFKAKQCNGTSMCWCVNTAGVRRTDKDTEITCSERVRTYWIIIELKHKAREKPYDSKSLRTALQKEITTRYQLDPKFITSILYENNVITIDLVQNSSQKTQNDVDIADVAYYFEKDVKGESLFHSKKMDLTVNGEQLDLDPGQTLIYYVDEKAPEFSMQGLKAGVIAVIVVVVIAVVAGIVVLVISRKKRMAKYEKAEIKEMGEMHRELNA
Put plainly: flow cytometry on CHO-K1 cells transfected with human EpCAM.

Experiment [6] addresses T4, human EpCAM on cells (CHO-K1 cells …). The experiment can be described thus: flow cytometry on MCF-7, Caco-2 and A431 cells.
Experiment [7] addresses T3, human EpCAM extracellular domain with …. The experiment can be described thus: ELISA, plate coated with human EpCAM.
Experiment [8] concerns the target T2, human CD47 extracellular domain with …. The experiment can be described thus: ELISA, plate coated with recombinant huCD47.

B1: VIR47 hIgG4-SPL (antibody)
heavy: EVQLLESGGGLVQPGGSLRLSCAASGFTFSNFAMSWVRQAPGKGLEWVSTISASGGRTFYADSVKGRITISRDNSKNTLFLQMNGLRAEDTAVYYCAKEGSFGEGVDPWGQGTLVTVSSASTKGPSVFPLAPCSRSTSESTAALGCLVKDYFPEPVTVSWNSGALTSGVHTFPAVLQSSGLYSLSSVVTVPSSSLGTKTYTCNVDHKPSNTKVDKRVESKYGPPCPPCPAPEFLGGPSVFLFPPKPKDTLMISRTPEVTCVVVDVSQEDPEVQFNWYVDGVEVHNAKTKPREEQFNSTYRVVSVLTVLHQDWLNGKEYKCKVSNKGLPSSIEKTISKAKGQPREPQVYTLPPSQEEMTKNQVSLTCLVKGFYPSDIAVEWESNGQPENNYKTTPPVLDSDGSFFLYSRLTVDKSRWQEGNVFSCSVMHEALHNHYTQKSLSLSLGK
light: SYEMTQPPSVSVSPGQTARITCSGDALPKKYAYWYQQKSGQAPVLVIYEDNKRPSGIPERFSGSSSGTMATLTISGAQVEDEADYYCYSTDISGNHWVFGGGTELTVLGQPKAAPSVTLFPPSSEELQANKATLVCLISDFYPGAVTVAWKADSSPVKAGVETTTPSKQSNNKYAASSYLSLTPEQWKSHRSYSCQVTHEGSTVEKTVAPTECS
notes: Anti-CD47 from OmniRat rats on a human IgG4 framework with S228P; also called VIR47 mAb; IgG4 form
For B1, in experiment [1], the “fold higher concentration required for RBC binding, against CD47 BMK-1” value was over 20 fold.

B2: VIR47 IgG1 HC G99A (antibody, V domains shown)
VH: EVQLLESGGGLVQPGGSLRLSCAASGFTFSNFAMSWVRQAPGKGLEWVSTISASGGRTFYADSVKGRITISRDNSKNTLFLQMNGLRAEDTAVYYCAKEGSFAEGVDPWGQGTLVTVSS
VL: SYEMTQPPSVSVSPGQTARITCSGDALPKKYAYWYQQKSGQAPVLVIYEDNKRPSGIPERFSGSSSGTMATLTISGAQVEDEADYYCYSTDISGNHWVFGGGTELTVLG
notes: Alanine-scan variant of the IgG1 form of VIR47; position in Kabat-style numbering, not the linear count on the entry
With B2, the concentration giving a half-maximal response (EC50) in experiment [2] is at least 0.15 nM; in experiment [3], at most 0.4 nM.

B3: VIR47.V7 hIgG1 (antibody, V domains shown)
VH: EVQLLESGGGLVQPGGSLRLSCAASGFTFSNFAMSWVRQAPGKGLEWVSTISASGGRTFYADSVKGRITISRDNSKNTLYLQMNSLRAEDTAVYYCAKEGSFGEGVDPWGQGTLVTVSS
VL: SYEMTQPPSVSVSPGQTARITCSGDALPKKYAYWYQQKSGQAPVLVIYEDNKRPSGIPERFSGSSSGTMATLTISGAQVEDEADYYCYSTDISGNHWVFGGGTKLTVLG
notes: HC: F79Y, G82bS; LC: E103K (Kabat) against VIR47; already contained in the entries
Take B3: the “fold higher concentration required for RBC binding, against CD47 BMK-1” value in experiment [1] was over 20 fold.

B4: mAb-28 (chimeric anti-EpCAM antibody) (antibody, V domains shown)
VH: QVQLQQSGAELARPGASVKVSCKASGYTFTSYGISWVKQRTGQGLEWIGEIYPTRDYTYYNENFKGKATLTADKSSTTAYMELRSLTSEDSAVYFCARDGPPFAYWGQGTLVTVSA
VL: DIVMTQAAFSNPVTLGTSASISCRSSKSLLHSNGFTYLHWYLQKPGQSPQLLIYQMSSLASGVPDRFSSSGSGTDFTLRISRVEAEDVGVYYCAQNLELPRTFGGGTKLEIK
Take B4: the binding result in experiment [4] and in experiment [5] was “binds” in each case.

B5: mAb-36 (chimeric anti-EpCAM antibody) (antibody, V domains shown)
VH: QVQVQQSGPELVKPGTSVKISCKTSGYTFTDYYITWVKQRPGQGLEWIGWIFPGRGISFYNENFKDKATLTVDKSSNTAFMLLSSLTSEDSAVYFCARWGGTWFAYWGQGTLITVSA
VL: EIVLTQSPAITAAFLGQKVTITCSASSSVSYIHWYQQKSDTSPKPWIYEISKLASGVPARFSGSGSGTSYSLTISSMEAEDAAIYYCQQWNYPLITFGGGTKLEIK
On to B5, for which the binding result in experiment [4] and in experiment [5] was “binds” in each case.

B6: mAb-8 (chimeric anti-EpCAM antibody) (antibody, V domains shown)
VH: QVQLQQSGAELARPGASVQLSCKASGYTFTSYGISWLKQRAGQGLEWIGEIYPRSDNTYYNEKFKGKATLTADKSSSTAYMELRSLTSEDSAVYFCARRAGMWFAYWGQGTLVTVSA
VL: EIVLTQSPAITAASLGQKVTITCSASSSVSDMHWYQQKSGTSPKPWIYEISKLASGVPTRFSGSGSGTSYSLTISSMEAEDAAIYYCQHWSYPLMTFGGGTKLEIK
notes: also called EpCAM Mab8
In experiment [6], B6 returned an EC50 of under 20 nM.

B7: mAb-39 (chimeric anti-EpCAM antibody) (antibody, V domains shown)
VH: QIQLVQSGPELKKPGETVKISCKASGYTFTSYGVTWVKQAPGKGLKWMGWINTYSGVPTYADDFKGRFAFSLETSASTAYLQINNLKNEDTATYFCARSHSNYDFWGQGTTLTVSS
VL: DIVMTQSQKFMSTTVGDRVSITCQASQNVGTDVGWYQQKPGQSPKLLIYSASNRYTGVPDRFTGSGSGTDFTLTISNMQSEDLADYFCQQYSSYPRTFGGGTKLEIK
Turning to B7, the binding result in experiment [4] and in experiment [5] was “binds” each time.

B8: mAb-4 (chimeric anti-EpCAM antibody) (antibody, V domains shown)
VH: QVQLQQPGAELVRPGTSVKLSCKASGYTFTSYWMHWIKQRPGQGLEWIGVIDPSNSYSNYNQKFKGRATLTVDTYSSTAYMQLSSLTSEDSAVYYCARPYNHGRDAMDYWGQGTSVTVSS
VL: DVLLTQTPLSLSVSLGDQASISCRSSQSFVHINGNTYLEWFLQKPGLSPKLLIYKVSNRFSGVPDRFSGSGSGTDFTLKISRVEAEDLGIYYCFQGSHVPLTFGAGTKLELK
Take B8: the binding result in experiment [4] is given as “binds”.

B9: mAb-33 (chimeric anti-EpCAM antibody) (antibody, V domains shown)
VH: EVLLQQSVADLVRPGASVKLSCTASGLNIKNTYIHWVKQMPEQGLEWIGRIGPANGNTKYAPKFQGKATITADTSSDTAYLQLSSLTSEDTAIYYCALAYYRIYWGQGTTLTVSS
VL: DIVLTQSPASLAVSLGQRATISCRASESVDNSGISFMHWYQQKPGQSPKLLIYRASNLESGIPARFSGSGSRTDFTLTINPVETDDVATYYCQQSYENPWTFGGGTKLEIK
As to B9, the binding result in experiment [4] and in experiment [5] was “binds” throughout.

B10: mAb-35 (chimeric anti-EpCAM antibody) (antibody, V domains shown)
VH: EVQLQQSVAELVRPGASVKLSCTASGFNIKNTYMHWVKQRPEQGLEWIGRIAPANGNTKYAPKFQDKATITANTSSNTAYLQLGSLTSEDTAIYYCAFIYQLPYWGQGTTLTVSS
VL: DIVLTQSPASLAVSLGQRATISCRASESVDNYGISFMHWFQQKPGQPPKLLIFRASSLESGIPARFSGSGSRTDFTLTINPVETDDVATYYCQQSYKDPWTFGGATKLEIK
As for B10, the binding result in experiment [4] and in experiment [5] was “binds” in each case.

B11: mAb-37 (chimeric anti-EpCAM antibody) (antibody, V domains shown)
VH: EVQLQQSVAELVRPGASVKLSCTASGFNIKNTYMHWVKQRPEQGLEWIGRIAPANGNTKYDPKFQDKATITADSSSNTAYLHLSSLTSEDTAIYYCAFIYQLPYWGQGSTLTVSS
VL: DIVLTQSPTSLAVSLGQRATISCRASESVDNYGISFMHWYQQKPGQPPKLLIYRASSLESGIPARFSGSGSRTDFTLTINPVESDDVATYYCQQSYKDPWTFGGATKLEIK
As to B11, in experiment [4], the binding result is recorded as “binds”.

B12: mAb-2 (chimeric anti-EpCAM antibody) (antibody, V domains shown)
VH: EVQLVESGGGLVQPKGSLKLSCAASGFTFNTYAMHWVRQAPGKGLEWVARIRSKTYNYATFYADSVKDRFTISRDDSQSMLYLQMNNLKTEDTAMFYCVTGSSYAMDYWGQGTSVTVSS
VL: DILLTQSPAILSVSPGERVSFSCRASQSIGTSLHWYQQRTNGSPRLLIKYASESISGIPSRFSGSGSGTDFTLSINSVESEDIADYYCQQSNSWPYTFGGGTKLEIK
notes: also called EpCAM Mab2
Consider B12, for which the EC50 in experiment [6] was under 20 nM.

B13: Bi-1 (3C-KIH EpCAM × CD47 scFv bispecific antibody) (bispecific antibody, human IgG1)
chain: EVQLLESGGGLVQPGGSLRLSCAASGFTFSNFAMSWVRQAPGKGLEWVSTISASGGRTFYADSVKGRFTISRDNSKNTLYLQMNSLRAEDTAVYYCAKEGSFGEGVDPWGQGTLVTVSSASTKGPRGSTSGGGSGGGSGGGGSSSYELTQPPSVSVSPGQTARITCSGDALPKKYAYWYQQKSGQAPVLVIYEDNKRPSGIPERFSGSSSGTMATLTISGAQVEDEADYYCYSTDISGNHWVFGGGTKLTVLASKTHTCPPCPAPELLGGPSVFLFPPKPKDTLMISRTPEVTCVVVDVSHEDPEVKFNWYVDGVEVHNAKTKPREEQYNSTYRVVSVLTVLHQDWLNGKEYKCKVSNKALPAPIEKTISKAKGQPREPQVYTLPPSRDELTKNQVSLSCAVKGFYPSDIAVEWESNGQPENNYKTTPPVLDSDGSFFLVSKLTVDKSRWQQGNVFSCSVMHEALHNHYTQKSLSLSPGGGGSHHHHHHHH
heavy: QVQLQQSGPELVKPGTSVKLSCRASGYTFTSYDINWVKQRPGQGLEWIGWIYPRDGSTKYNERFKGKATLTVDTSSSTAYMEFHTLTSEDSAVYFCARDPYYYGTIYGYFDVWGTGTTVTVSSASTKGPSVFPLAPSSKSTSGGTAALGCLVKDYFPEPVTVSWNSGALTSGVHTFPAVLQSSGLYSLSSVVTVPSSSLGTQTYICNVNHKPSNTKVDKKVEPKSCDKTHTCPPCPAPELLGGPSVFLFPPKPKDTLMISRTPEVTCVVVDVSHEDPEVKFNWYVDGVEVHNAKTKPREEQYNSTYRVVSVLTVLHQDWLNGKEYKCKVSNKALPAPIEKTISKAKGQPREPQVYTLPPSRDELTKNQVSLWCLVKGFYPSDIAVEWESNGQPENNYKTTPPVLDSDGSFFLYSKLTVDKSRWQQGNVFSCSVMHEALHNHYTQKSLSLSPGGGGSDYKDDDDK
VL: DIQMTQSPSSLSASLGERVSLTCRASQDIGNSLNWLQQKPDGTIKRLIYVTSRLDSGVPKRFSGSRSGSDYFFTISSLESEDFADYYCLQYASSPFTFGSGTKLEIK
notes: Three-chain knob-into-hole format
B13: the binding result in experiment [7] and in experiment [8] was “binds” throughout.

B14: mAb-1 (chimeric anti-EpCAM antibody) (antibody, V domains shown)
VH: QVQLQQSGPELVKPGTSVKLSCRASGYTFTSYDINWVKQRPGQGLEWIGWIYPRDGSTKYNERFKGKATLTVDTSSSTAYMEFHTLTSEDSAVYFCARDPYYYGTIYGYFDVWGTGTTVTVSS
VL: DIQMTQSPSSLSASLGERVSLTCRASQDIGNSLNWLQQKPDGTIKRLIYVTSRLDSGVPKRFSGSRSGSDYFFTISSLESEDFADYYCLQYASSPFTFGSGTKLEIK
notes: also called EpCAM Mab1
The molecule B14 had a concentration giving a half-maximal response (EC50) in experiment [6] of under 20 nM. For the same molecule, in experiment [7], the “EC50 (read off the curve)” value is about 0.1 nM. Further, in experiment [8], the binding result is listed as “no binding (tested: 100 nM)”.

B15: mAb-21 (chimeric anti-EpCAM antibody) (antibody, V domains shown)
VH: DVQLQESGPGLVKPSQSLSLTCTVTGYSITSDFAWNWIRQFPGNKLEWVGYITYSGTTSYNPSLKSRISITRDTSKNQFFLQLSSVTTEDTATYYCARSFHFFAYGFAYWGQGTLVTVSA
VL: not shown
In the case of B15, the EC50 in experiment [6] is under 20 nM.

B16: mAb-30 (chimeric anti-EpCAM antibody) (antibody, V domains shown)
VH: EVQLQQSGPELVKPGASVKISCKASGYTFTDYYMSWVKQSHGRSLEWIGEINPDNGDTSHNQKFKGKATMTVDKSSGTGNMEIRSLTSEDAGIYYCTSYFSYWGQGTLVTVSA
VL: DVLMTQSPLSLPVSLGDQASISCRSSQSIVDSDGSTYLEWYLQKPGQSPKLLIYKVSNRFSGVPDRFSGSGSGTDFTLKISGVEAEDLGVYYCFQGSHVPYTFGGGTKLEIK
B16: the binding result in experiment [4] and in experiment [5] was “binds” each time.

Broadly, the EC50 is the concentration at which the effect is half-maximal. The low end stands for higher potency in that assay, the high end for lower potency in that assay. As a reminder, the EC50 (read off the curve) is the concentration giving half of the maximal effect.
